Target: the molecule itself
Experiment: pull-down

Protein	binding result
Pop1p (natural protein, 32P-phosphate on the RRASV site (bovine heart kinase), in the untagged radiolabelled form only) MSGSLSRGNGGKKVLNKNQLLKRNRIRNARSIRAEAVAASSTKTGTPSDLSESGSKLNVDQFISSRQFEVKQLQLAMHNSKAASSTRIFQALPRKLRRRTASHNVRRIPKRMRNRALREMRKSDQQDVLKGSSASSRKAHGLNAKQLYKARMSIKLLRLASKSTSMKLSMPPEVTSSNCHVRQKIKTLKRMIKESSTANPNIKLLNNRMGSYDCTGVNELAPIPKGRVKYTKRQKHFAWLPTHIWNAKRSHMMKRWGYQMVWAPTQKCFKLTHRLGGDTCSSDGALCMDSSYIGTIIVKDKSNDSEGDFLKSIIGKLTAERANLRKYREGQVLFQGLIYSFNEENGEDSTKPLGPCDVFWVQKDTAIIRLHPSIYTQVFNILLQHKEKLTVQDCRYSLASVTLKGAKALESLASCLRSTEYSKSFEQFKMVSMITDHNALPQRCTFAFEAIDPRHLAAPKKLNDSQRKTVNSDDILSLHENYPQDEINAVFNELCDPESRTQSYNNQNTLKEISARRYKLLTATPNSINKTTVPFKESDDPSIPLVIIRRLKTRDWIVVLPWFWLLPLWHLLNRIPRMYHIGLRQFQQIQYENKQLYFPDDYPFTQLGYIENSFYKKEASKTKWDRKPMGKRINFEKIKDIHNTKLPAYSGEIGDFFSSDWRFLQILRNGIDYLQRNDKTLELMDSKKTGQFNAQGVRDINCVNDVLEFCKDYEAKTKAMSLSIEENIPVALCKNRKCQFRTPDSISVNSSSFSLTFFPRCIIAVSCTLLERGHPKDNARIYQVPEKDLEHWLQLAKGVYRPNGRKDHDLKIPLPEVHDLIGFITSGTYHLNCGNGMGIGFIDHHAAIRQPTRYVLIRNVGTNTYRLGEWSKISV	binds
Pop3p (natural protein, 32P-phosphate on the RRASV site (bovine heart kinase), in the untagged radiolabelled form only) MSGSLKSLDKKIAKRRQVYKPVLDNPFTNEAHMWPRVHDQPLIWQLLQSSIINKLIHIQSKENYPWELYTDFNEIVQYLSGAHGNSDPVCLFVCNKDPDVPLVLLQQIPLLCYMAPMTVKLVQLPKSAMDTFKSVSKYGMLLLRCDDRVDKKFVSQIQKNVDLLQFPWLNAIKYRPTSVKLLKTTVPIVSKKRQK	binds
Rpp1p (natural protein, 32P-phosphate on the RRASV site (bovine heart kinase), in the untagged radiolabelled form only) MLVDLNVPWPQNSYADKVTSQAVNNLIKTLSTLHMLGYTHIAINFTVNHSEKFPNDVKLLNPIDIKRRFGELMDRTGLKLYSRITLIIDDPSKGQSLSKISQAFDIVAALPISEKGLTLSTTNLDIDLLTFQYGSRLPTFLKHKSICSCVNRGVKLEIVYGYALRDVQARRQFVSNVRSVIRSSRSRGIVIGSGAMSPLECRNILGVTSLIKNLGLPSDRCSKAMGDLASLVLLNGRLRNKSHKQTIVTGGGSGNGDDVVNDVQGIDDVQTIKVVKRSMDAEQLGHASKRHKP	binds
Pop4p (natural protein, 32P-phosphate on the RRASV site (bovine heart kinase), in the untagged radiolabelled form only) MDRTQTFIKDCLFTKCLEDPEKPFNENRFQDTLLLLPTDGGLTSRLQRQQRKSKLNLDNLQKVSQLESADKQLEKRDYQRINKNSKIALREYINNCKKNTKKCLKLAYENKITDKEDLLHYIEEKHPTIYESLPQYVDFVPMYKELWINYIKELLNITKNLKTFNGSLALLKLSMADYNGALLRVTKSKNKTLIGLQGIVIWDSQKFFIMIVKGNIIDEIKCIPKKGTVFQFEIPISDDDDSALRYSILGDRFKYRSVDRAGRKFKSRRCDDMLYYIQN	binds
